Data: publication PMC7141811

How the values were obtained:
[1] = biological target: mEGFP-CaMKII-α (human Ca2+/calmodulin-dependent protein kinase II α, Avitag-linker-mEGFP-linker-CaMKII-α) (human) (UniProt Q9UQM7); experiment: single-molecule pull-down with TIRF colocalisation; mEGFP-CaMKII-α and mCherry-CaMKII-β* co-transfected in HEK 293T cells (α:β* 3:1 and 1:1); biotinylated holoenzymes captured from 100-200x diluted lysate on streptavidin-coated glass; colocalisation of green and red spots; data not shown
[2] = biological target: mEGFP-CaMKII-α (human Ca2+/calmodulin-dependent protein kinase II α, Avitag-linker-mEGFP-linker-CaMKII-α) (human) (UniProt Q9UQM7)

UniProt Q9UQM7, sequence (Q9UQM7 whole entry): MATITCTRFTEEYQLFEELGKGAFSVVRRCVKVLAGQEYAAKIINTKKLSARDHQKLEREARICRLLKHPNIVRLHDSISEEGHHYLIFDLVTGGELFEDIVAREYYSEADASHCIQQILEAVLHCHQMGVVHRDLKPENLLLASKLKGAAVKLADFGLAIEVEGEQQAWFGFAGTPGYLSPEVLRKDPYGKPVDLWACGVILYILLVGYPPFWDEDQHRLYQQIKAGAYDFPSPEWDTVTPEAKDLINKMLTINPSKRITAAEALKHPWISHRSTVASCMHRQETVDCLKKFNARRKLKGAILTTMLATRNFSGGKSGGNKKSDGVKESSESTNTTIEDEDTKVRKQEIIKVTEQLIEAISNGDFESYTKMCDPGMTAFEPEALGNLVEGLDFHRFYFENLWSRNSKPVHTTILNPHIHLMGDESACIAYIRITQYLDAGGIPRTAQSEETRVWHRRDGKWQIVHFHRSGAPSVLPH

Substance	percent colocalization of red and green spots (heterooligomeric holoenzymes) [1] [%]	EC50 of CaMKII-α activation (autophosphorylation at Thr 286 of glass-immobilised holoenzymes, single-molecule TIRF) by Ca2+/CaM, 20 nM to 5 μM, 100 μM Ca2+, ATP [2] [µM]
mCherry-CaMKII-β* (CaMKII-α in which the kinase-hub linker is replaced by that from CaMKII-β) (enzyme)	80	–
calmodulin (Ca2+/calmodulin) (from UniProt P62157 1-149) (natural protein)	–	0.05 to 0.1
